Measured values reported in IntAct's records for PubMed 25910212.

B1: Acetylcholine receptor subunit gamma (Homo sapiens), P07510-2 (parent)
chain: MHGGQGPLLLLLLLAVCLGAQGRNQEERLLADLMQNYDPNLRPAERDSDVVNVSLKLTLTNLISLNEREEALTTNVWIEMQWCDYRLRWDPRDYEGLWVLRVPSTMVWRPDIVLENKSQTYSTNEIDLQLSQEDGQTIEWIFIDPEAFTENGEWAIQHRPAKMLLDPAAPAQEAGHQKVVFYLLIQRKPLFYVINIIAPCVLISSVAILIHFLPAKAGGQKCTVAINVLLAQTVFLFLVAKKVPETSQAVPLISKYLTFLLVVTILIVVNAVVVLNVSLRSPHTHSMARGVRKVFLRLLPQLLRMHVRPLAPAAVQDTQSRLQNGSSGWSITTGEEVALCLPRSELLFQQWQRQGLVAAALEKLEKGPELGLSQFCGSLKQAAPAIQACVEACNLIACARHQQSHFDNGNEEWFLVGRVLDRVCFLAMLSLFICGTAGIFLMAHYNRVPALPFPGDPRPYLPSPD
partner: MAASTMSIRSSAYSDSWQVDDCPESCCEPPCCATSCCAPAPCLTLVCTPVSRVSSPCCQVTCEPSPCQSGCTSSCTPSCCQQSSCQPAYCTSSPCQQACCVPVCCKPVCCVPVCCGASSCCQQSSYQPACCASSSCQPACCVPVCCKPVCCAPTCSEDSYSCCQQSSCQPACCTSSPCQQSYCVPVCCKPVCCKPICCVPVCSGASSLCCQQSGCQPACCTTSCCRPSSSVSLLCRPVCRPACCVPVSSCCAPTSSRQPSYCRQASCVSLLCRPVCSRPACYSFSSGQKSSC
B2: Chorion-specific transcription factor GCMb (Homo sapiens), O75603 (parent)
chain: MPAAAVQEAVGVCSYGMQLSWDINDPQMPQELALFDQFREWPDGYVRFIYSSDEKKAQRHLSGWAMRNTNNHNGHILKKSCLGVVVCTQACTLPDGSRLQLRPAICDKARLKQQKKACPNCHSALELIPCRGHSGYPVTNFWRLDGNAIFFQAKGVHDHPRPESKSETEARRSAIKRQMASFYQPQKKRIRESEAEENQDSSGHFSNIPPLENPEDFDIVTETSFPIPGQPCPSFPKSDVYKATCDLATFQGDKMPPFQKYSSPRIYLPRPPCSYELANPGYTNSSPYPTLYKDSTSIPNDTDWVHLNTLQCNVNSYSSYERSFDFTNKQHGWKPALGKPSLVERTNHGQFQAMATRPYYNPELPCRYLTTPPPGAPALQTVITTTTKVSYQAYQPPAMKYSDSVREVKSLSSCNYAPEDTGMSVYPEPWGPPVTVTRAASPSGPPPMKIAGDCRAIRPTVAIPHEPVSSRTDEAETWDVCLSGLGSAVSYSDRVGPFFTYNNEDF
partner: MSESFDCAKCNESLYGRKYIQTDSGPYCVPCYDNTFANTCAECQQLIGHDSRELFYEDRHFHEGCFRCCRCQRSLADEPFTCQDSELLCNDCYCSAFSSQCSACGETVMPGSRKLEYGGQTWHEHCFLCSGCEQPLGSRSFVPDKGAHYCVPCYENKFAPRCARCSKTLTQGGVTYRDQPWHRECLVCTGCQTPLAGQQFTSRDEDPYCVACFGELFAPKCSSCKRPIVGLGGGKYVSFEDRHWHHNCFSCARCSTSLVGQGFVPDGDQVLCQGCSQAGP
B3: SWI/SNF-related matrix-associated actin-dependent regulator of chromatin subfamily A member 2 (Homo sapiens), P51531-1 (parent)
chain: MSTPTDPGAMPHPGPSPGPGPSPGPILGPSPGPGPSPGSVHSMMGPSPGPPSVSHPMPTMGSTDFPQEGMHQMHKPIDGIHDKGIVEDIHCGSMKGTGMRPPHPGMGPPQSPMDQHSQGYMSPHPSPLGAPEHVSSPMSGGGPTPPQMPPSQPGALIPGDPQAMSQPNRGPSPFSPVQLHQLRAQILAYKMLARGQPLPETLQLAVQGKRTLPGLQQQQQQQQQQQQQQQQQQQQQQQPQQQPPQPQTQQQQQPALVNYNRPSGPGPELSGPSTPQKLPVPAPGGRPSPAPPAAAQPPAAAVPGPSVPQPAPGQPSPVLQLQQKQSRISPIQKPQGLDPVEILQEREYRLQARIAHRIQELENLPGSLPPDLRTKATVELKALRLLNFQRQLRQEVVACMRRDTTLETALNSKAYKRSKRQTLREARMTEKLEKQQKIEQERKRRQKHQEYLNSILQHAKDFKEYHRSVAGKIQKLSKAVATWHANTEREQKKETERIEKERMRRLMAEDEEGYRKLIDQKKDRRLAYLLQQTDEYVANLTNLVWEHKQAQAAKEKKKRRRRKKKAEENAEGGESALGPDGEPIDESSQMSDLPVKVTHTETGKVLFGPEAPKASQLDAWLEMNPGYEVAPRSDSEESDSDYEEEDEEEESSRQETEEKILLDPNSEEVSEKDAKQIIETAKQDVDDEYSMQYSARGSQSYYTVAHAISERVEKQSALLINGTLKHYQLQGLEWMVSLYNNNLNGILADEMGLGKTIQTIALITYLMEHKRLNGPYLIIVPLSTLSNWTYEFDKWAPSVVKISYKGTPAMRRSLVPQLRSGKFNVLLTTYEYIIKDKHILAKIRWKYMIVDEGHRMKNHHCKLTQVLNTHYVAPRRILLTGTPLQNKLPELWALLNFLLPTIFKSCSTFEQWFNAPFAMTGERVDLNEEETILIIRRLHKVLRPFLLRRLKKEVESQLPEKVEYVIKCDMSALQKILYRHMQAKGILLTDGSEKDKKGKGGAKTLMNTIMQLRKICNHPYMFQHIEESFAEHLGYSNGVINGAELYRASGKFELLDRILPKLRATNHRVLLFCQMTSLMTIMEDYFAFRNFLYLRLDGTTKSEDRAALLKKFNEPGSQYFIFLLSTRAGGLGLNLQAADTVVIFDSDWNPHQDLQAQDRAHRIGQQNEVRVLRLCTVNSVEEKILAAAKYKLNVDQKVIQAGMFDQKSSSHERRAFLQAILEHEEENEEEDEVPDDETLNQMIARREEEFDLFMRMDMDRRREDARNPKRKPRLMEEDELPSWIIKDDAEVERLTCEEEEEKIFGRGSRQRRDVDYSDALTEKQWLRAIEDGNLEEMEEEVRLKKRKRRRNVDKDPAKEDVEKAKKRRGRPPAEKLSPNPPKLTKQMNAIIDTVINYKDRCNVEKVPSNSQLEIEGNSSGRQLSEVFIQLPSRKELPEYYELIRKPVDFKKIKERIRNHKYRSLGDLEKDVMLLCHNAQTFNLEGSQIYEDSIVLQSVFKSARQKIAKEEESEDESNEEEEEEDEEESESEAKSVKVKIKLNKKDDKGRDKGKGKKRPNRGKAKPVVSDFDSDEEQDEREQSEGSGTDDE
B4: F-box only protein 7 (Homo sapiens), Q9Y3I1 (parent)
chain: MRLRVRLLKRTWPLEVPETEPTLGHLRSHLRQSLLCTWGYSSNTRFTITLNYKDPLTGDEETLASYGIVSGDLICLILQDDIPAPNIPSSTDSEHSSLQNNEQPSLATSSNQTSMQDEQPSDSFQGQAAQSGVWNDDSMLGPSQNFEAESIQDNAHMAEGTGFYPSEPMLCSESVEGQVPHSLETLYQSADCSDANDALIVLIHLLMLESGYIPQGTEAKALSMPEKWKLSGVYKLQYMHPLCEGSSATLTCVPLGNLIVVNATLKINNEIRSVKRLQLLPESFICKEKLGENVANIYKDLQKLSRLFKDQLVYPLLAFTRQALNLPDVFGLVVLPLELKLRIFRLLDVRSVLSLSAVCRDLFTASNDPLLWRFLYLRDFRDNTVRVQDTDWKELYRKRHIQRKESPKGRFVMLLPSSTHTIPFYPNPLHPRPFPSSRLPPGIIGGEYDQRPTLPYVGDPISSLIPGPGETPSQFPPLRPRFDPVGPLPGPNPILPGRGGPNDRFPFRPSRGRPTDGRLSFM
partner: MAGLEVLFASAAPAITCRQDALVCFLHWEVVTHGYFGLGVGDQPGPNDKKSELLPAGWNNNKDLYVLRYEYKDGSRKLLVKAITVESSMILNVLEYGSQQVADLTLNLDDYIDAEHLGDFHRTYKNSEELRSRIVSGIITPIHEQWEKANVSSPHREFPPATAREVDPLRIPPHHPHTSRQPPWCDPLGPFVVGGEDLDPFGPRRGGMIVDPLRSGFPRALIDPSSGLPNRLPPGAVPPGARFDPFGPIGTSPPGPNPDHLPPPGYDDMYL
B5: Torsin-1A (Homo sapiens), O14656 (parent)
chain: MKLGRAVLGLLLLAPSVVQAVEPISLGLALAGVLTGYIYPRLYCLFAECCGQKRSLSREALQKDLDDNLFGQHLAKKIILNAVFGFINNPKPKKPLTLSLHGWTGTGKNFVSKIIAENIYEGGLNSDYVHLFVATLHFPHASNITLYKDQLQLWIRGNVSACARSIFIFDEMDKMHAGLIDAIKPFLDYYDLVDGVSYQKAMFIFLSNAGAERITDVALDFWRSGKQREDIKLKDIEHALSVSVFNNKNSGFWHSSLIDRNLIDYFVPFLPLEYKHLKMCIRVEMQSRGYEIDEDIVSRVAEEMTFFPKEERVFSDKGCKTVFTKLDYYYDD
partner: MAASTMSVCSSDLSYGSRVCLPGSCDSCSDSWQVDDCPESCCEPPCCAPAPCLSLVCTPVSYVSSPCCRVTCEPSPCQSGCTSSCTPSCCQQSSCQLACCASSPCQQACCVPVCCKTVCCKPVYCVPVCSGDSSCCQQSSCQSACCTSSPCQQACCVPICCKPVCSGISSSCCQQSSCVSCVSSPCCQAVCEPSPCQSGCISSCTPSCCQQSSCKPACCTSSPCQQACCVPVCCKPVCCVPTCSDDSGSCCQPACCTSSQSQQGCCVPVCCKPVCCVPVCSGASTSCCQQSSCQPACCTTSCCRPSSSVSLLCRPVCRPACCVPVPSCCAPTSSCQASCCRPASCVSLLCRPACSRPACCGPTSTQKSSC

Variants of: B1
Settings: with kr109_human KRTAP10-9, P60411

Question: R187C was tested. Which “effect of a mutation on the interaction” value did it give?
Answer: Its value is “disrupting interaction strength”.

Question: How did the “effect of a mutation on the interaction” value turn out when R86C was run?
Answer: Its value is “disrupting interaction strength”.

Question: V107G was tested. Which “effect of a mutation on the interaction” value did it give?
Answer: The value was “disrupting interaction strength”.

Variants of: B2
Settings: with fhl3_human FHL3, Q13643

Question: With R47L as the variant, how does the “effect of a mutation on the interaction” value read?
Answer: Its value is “disrupting interaction strength”.

Question: Which “effect of a mutation on the interaction” value does the source give for G203S here?
Answer: Its value is “with no effect”.

Question: Which “effect of a mutation on the interaction” value does the source give for G63S here?
Answer: The value was “with no effect”.

Variants of: B3
Settings: with sdcb1_human SDCBP

Question: D1546E was tested. Which “effect of a mutation on the interaction” value did it give?
Answer: The value was “with no effect”.

Variants of: B3
Settings: with sdcb1_human SDCBP
Remark: another data set of the same source

Question: D1546E was tested. Which “effect of a mutation on the interaction” value did it give?
Answer: The value was “with no effect”.

Variants of: B4
Settings: with psmf1_human PSMF1, Q92530

Question: For T22M, which “effect of a mutation on the interaction” value is on record?
Answer: The value was “disrupting interaction strength”.

Variants of: B5
Settings: with kr107_human KRTAP10-7, P60409

Question: For D216H, which “effect of a mutation on the interaction” value is on record?
Answer: Its value is “with no effect”.
